The labels stand for the following.
T1: mouse CD47-Fc (mouse, UniProt Q61735 19-140, limits assumed)
T1 construct: Recombinant CD47-Fc; also called mCD47-Fc; mCD37-Fc [sic]; not shown: Fc part
T1 sequence (looked up): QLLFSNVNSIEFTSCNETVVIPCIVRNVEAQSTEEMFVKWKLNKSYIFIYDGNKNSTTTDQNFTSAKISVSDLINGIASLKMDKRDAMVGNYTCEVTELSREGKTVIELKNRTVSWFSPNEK

B1: A-D5.10 in human IgG1null format (antibody, V domains shown)
VH: EVQLVQSGAEVKKPGESLKISCKGSGYTFTNYYIFWVRQMPGKGLEWMGIINPVDGDTNYNPSFQGQVTISADKSISTAYLQWSSLKASDTAMYYCARGGYTMDRWGQGTLVTVSS
VL: DIVMTQSPLSLPVTPGEPASISCRSSQSLLHSQGYTYLHWYLQKPGQSPQLLIYKVSNRLSGVPDRFSGSGSGTDFTLKISRVEAEDVGVYYCFQQTHTPRTFGQGTKVEIK
notes: Designer clone from A-D5; IgG1null
B2: A-D5.9 in human IgG1null format (antibody, V domains shown)
VH: B1 VH
VL: B1 VL with Q33N
notes: as for B1
B3: A-D5.3 in human IgG1null format (antibody, V domains shown)
VH: B1 VH with T28S, N59R, N61S
VL: B1 VL with Q33N, Q96N
notes: as for B1
B4: A-D5.6 in human IgG1null format (antibody, V domains shown)
VH: B1 VH
VL: B1 VL with Q33N, T36N, V56G, Q96N, H98Q
notes: as for B1
B5: A-D5.5 in human IgG1null format (antibody, V domains shown)
VH: B1 VH
VL: B1 VL with Q33N, T36N, V56G, Q96N
notes: as for B1
B6: A-D5.1 in human IgG1null format (antibody, V domains shown)
VH: B1 VH with T28S
VL: B1 VL with Q33N, Q96N
notes: as for B1
B7: A-D5.11 in human IgG1null format (antibody, V domains shown)
VH: B1 VH with T28S
VL: B1 VL with Q33N, T36N, Q96N
notes: Designer clone from A-D5.4; IgG1null
B8: A-D5.12 in human IgG1null format (antibody, V domains shown)
VH: B1 VH with T28S, N59R
VL: B1 VL with Q33N, T36N, Q96N
notes: as for B7
B9: A-D5.15 in human IgG1null format (antibody, V domains shown)
VH: B1 VH with T28S, N59R, N61S
VL: B1 VL with Q33G, T36N, Q96N
notes: as for B7
B10: A-D5.18 in human IgG1null format (antibody, V domains shown)
VH: B1 VH with T28S, N59R, N61S
VL: B1 VL with Q33N, G34A, T36N, Q96N
notes: as for B7
B11: A-D5.14 in human IgG1null format (antibody, V domains shown)
VH: B1 VH with T28S, N59R, N61S
VL: B1 VL with Q33S, T36N, Q96N
notes: as for B7
B12: A-D5.17 in human IgG1null format (antibody, V domains shown)
VH: B1 VH with T28S, N59R, N61S
VL: B1 VL with Q33T, T36N, Q96N
notes: as for B7
B13: A-D5.13 in human IgG1null format (antibody, V domains shown)
VH: B1 VH with T28S, N59R, N61S
VL: B1 VL with Q33N, T36N, Q96N
notes: as for B7
B14: mVH/mVL (chimeric VxP037) in human IgG1null format (antibody, V domains shown)
VH: EVQLQQFGAELVKPGASMKLSCKASGYTFTNYYVFWVKQRPGQGLEWIGDINPVNGDTNFNEKFKNKATLTVDKSSTTTYLQLSSLTSEDSAVYYCTRGGYTMDYWGQGTLVTVSS
VL: DVVMTQTPLSLSVSLGDQASISCRSSQSLVHSNGNTYLHWYLQKPGQSPKLLIYKVSYRFSGVPDRFSGSGSGTDFTLKISRVEAEDLGVYFCSQNTHVPRTFGQGTKVEIK
notes: Murine v-domains on human IgG1null (IgG1 L234A/L235A/G237A), kappa; also called VP037; Chimeric anti-CD47
B15: mVH/mVL (chimeric VxP037) in human IgG4(S228P) format (antibody, V domains shown)
VH: B14 VH
VL: B14 VL
notes: IgG4 with S228P; also called mVH/mVL IgG4
B16: G-B6 in human IgG4(S228P) format (antibody, V domains shown)
VH: B1 VH with T28S, M48I, I50D, D55N, Y60F, N61S, R105K
VL: B1 VL with L30V, Q33N, V56G, N58Y, L60A, F94S, Q96N, H98Q
notes: IgG4(S228P), kappa; also called G-B6 IgG4
B17: F-E7 in human IgG4(S228P) format (antibody, V domains shown)
VH: B1 VH with T28S, D55N, D104G, R105K
VL: B1 VL with L30V, Q33N, Y35N, H39D, V56G, N58Y, L60F, F94S, Q96A
notes: IgG4(S228P), kappa; also called F-E7 IgG4
B18: VH-A1/VL-B1 in human IgG4(S228P) format (antibody, V domains shown)
VH: B1 VH with T28S, N59R, N61S, Y101F, R105Y
VL: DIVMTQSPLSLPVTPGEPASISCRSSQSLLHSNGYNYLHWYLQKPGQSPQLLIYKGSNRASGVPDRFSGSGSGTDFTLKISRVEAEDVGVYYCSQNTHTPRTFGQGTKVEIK
notes: IgG4(S228P), kappa; also called VH-A1/VL-B1 IgG4
B19: D-H3 in human IgG4(S228P) format (antibody, V domains shown)
VH: B1 VH with T28S, I50D, D55N, N61S, M103P, R105Y
VL: B1 VL with Q33N, T36N, V56G, L60F, F94S, Q96N, T97L, T99V
notes: IgG4(S228P), kappa; also called D-H3 IgG4
B20: A-D5 in human IgG4(S228P) format (antibody, V domains shown)
VH: B1 VH
VL: B1 VL with Q33N, Q96N
notes: IgG4(S228P), kappa; also called IgG4 A-D5

Residue numbers refer to the chain shown, from its start. Numbers in names are those of the source.

One test addresses T2, human CD47-Fc (human, UniProt Q08722 19-139).
T2 construct: Recombinant CD47-Fc; also called hCD47-Fc; not shown: Fc part
The experiment in a line: direct titration ELISA, FIG. 9A. As to the method:
FIG. 9A-FIG. 9C. Direct titration ELISA for designer IgGs binding to human, mouse and cyno CD47-Fc proteins. Chimeric anti-CD47 (mVH/mVL), designer A-D5-derived clones in human IgG1null format were titrated (in μg/ml) in a direct binding ELISA against human (FIG. 9A), cyno (FIG. 9B) and mouse (FIG. 9C) CD47-Fc proteins. […] In the figure legend, “IgG1NI” refers to IgG1 null isotype.
(§1) To coat Greiner Bio-One High bind ELISA plates, target proteins were diluted to 1 μg/ml in carbonate buffer and added at 100 μl per well, at 4° C., o/n. Coated plates were washed 3× with PBS pH7.4, blocked with 1% BSA in PBS (380 μl/well) for 1 hr at RT, then washed 3× with PBS-Tween 20 (PBST). CD47 antibodies (100 μl/well; diluted in PBST) were then added and then incubated 1 hr at RT. Plates were then washed 3× with PBST and goat anti-human kappa chain-HRP added (100 μl/well) at RT, for 1 hr. Plates were then washed 3× with PBST and twice with PBS before the addition of 100 μl TMB per well. Reactions were stopped by adding 100 μl 2M H₂SO₄/well and OD was read on a plate reader at 450 nm.
(An ELISA detects its analyte on a solid surface through an enzyme-linked reagent.)
Turning to B1, the binding result is reported as “binds”.

As for B2, the binding result is reported as “binds”.

B3: the binding result is “binds”.

As to B4, the binding result is listed as “binds”.

As for B5, the binding result is reported as “binds”.

For the molecule B6, the binding result is reported as “binds”.

A further test deals with T2, human CD47-Fc. The test can be described thus: direct titration ELISA, FIG. 11A. As for the experimental part:
(§2) FIG. 11A-FIG. 11C. Direct titration ELISA for A-D5.4-derived designer IgGs binding to human, mouse and cyno CD47-Fc proteins. Chimeric anti-CD47 (mVH/mVL), designer A-D5.4-derived clones in human IgG1 null format were titrated (in μg/ml) in a direct binding ELISA against human (FIG. 11A), cyno (FIG. 11B) and mouse (FIG. 11C) CD47-Fc proteins. […] In the figure legends, “IgG1NI” refers to IgG1 null isotype.
as §1
As for B7, the binding result was “binds”.

Regarding B8, the binding result is listed as “binds”.

For the molecule B9, the binding result is recorded as “binds”.

For the molecule B10, the binding result was “binds”.

Regarding B11, the binding result is listed as “binds”.

For the molecule B12, the binding result is on record as “binds”.

B13: the binding result is “binds”.

A further test addresses T1, mouse CD47-Fc. The experiment in a line: direct titration ELISA, FIG. 11C. As to the method:
as §2, §1
Regarding B14, the binding result is reported as “binds”.

Take B7: the binding result is recorded as “binds”.

Take B8: the binding result is given as “binds”.

On to B9, for which the binding result was “binds”.

In the case of B10, the binding result was “binds”.

As for B11, the binding result is “binds”.

B12: the binding result is “binds”.

On to B13, for which the binding result is on record as “binds”.

For another test, the target named is T3, cynomolgus monkey CD47 on transfected CHO-K1 cells (cynomolgus monkey, UniProt A0A5F8AK49 19-323 (rhesus entry)).
T3 construct: whole, on cells; also called cyno CD47+ cells
The experiment in a line: flow cytometry, cyno CD47-transfected CHO-K1, FIG. 6. As for the experimental part: (§3) FIG. 6A-FIG. 6C. Flow cytometric binding to human and cyno CD47+CHO-K1 cells. Commercial anti-CD47 antibody MS1991, human IgG1 (“I IgG1”) and IgG4 (“I IgG4”) Isotype controls, lead library-derived IgGs in both IgG1null (“IgG1N”) and IgG4(S228P) formats were examined for specific binding on cyno-transfected CHO-K1 cells (FIG. 6A), human-transfected CHO-K1 cells (FIG. 6B), and wild type (wt, i.e. untransfected) CHO-K1 cells (FIG. 6C). IgGs were tested at concentrations ranging from 24-100,000 ng/ml. Concentration-dependent binding was observed against both human and cyno cell lines for all CD47-specific antibodies but not Isotype controls.
(§4) Antibodies to CD47 were analysed for concentration-dependent binding at the cell surface via flow cytometry. CHO-K1 cells were stably transfected with either human, mouse or cyno CD47 full-length cDNAs. Anti-CD47 IgGs mVH/mVL, VH-A1/VL-B1, A-D5, G-B6, F-E7 and D-H3, and an isotype control IgG1 were then all tested in IgG1null and IgG4(S228P) formats, alongside a commercial mouse anti-human CD47 monoclonal MS1991, over a concentration range of 100,000-24 ng/ml for binding to human, cyno or wild type control (‘wt’, i.e. untransfected) CHO-K1.
As for B14, the “maximum MFI, fold over untransfected CHO-K1” value (“maximum MFI, fold” for short) is greater than 10 fold.

As to B15, the “maximum MFI, fold” value was greater than 10 fold.

In the case of B16, the “maximum MFI, fold” value was greater than 10 fold.

For the molecule B17, the “maximum MFI, fold” value is greater than 10 fold.

Consider B18, for which the “maximum MFI, fold” value was greater than 10 fold.

Regarding B19, the “maximum MFI, fold” value is greater than 10 fold.

Consider B20, for which the “maximum MFI, fold” value is greater than 10 fold.

For a further test, the target named is T4, human CD47 on cells (human CD47-transfected CHO-K1; HL60) (human, UniProt Q08722 19-323).
T4 construct: whole, on cells; also called human CD47+ cells; human CD47+HL60 cells
The test can be described thus: flow cytometry, human CD47-transfected CHO-K1, FIG. 6. As for the experimental part: as §3, §4
In general terms: In flow cytometry, cells or beads pass a laser one at a time.
Take B14: the “maximum MFI, fold” value was greater than 10 fold.

As to B15, the “maximum MFI, fold” value is greater than 10 fold.

Turning to B16, the “maximum MFI, fold” value was greater than 10 fold.

Take B17: the “maximum MFI, fold” value was greater than 10 fold.

Regarding B18, the “maximum MFI, fold” value is greater than 10 fold.

In the case of B19, the “maximum MFI, fold” value was greater than 10 fold.

Regarding B20, the “maximum MFI, fold” value was greater than 10 fold.

Source of the values: patent US20200277375A1 (ULTRAHUMAN FOUR, published 2020).
